“And” between values parts separate entries of the source, which are not always exact repeats. Identical values can stand only once. Marks after values point to notes of the source that are not given here.
Assay: Phase 1 (1a/1b) pharmacokinetics: plasma concentrations after single IV dose (validated direct fluorescence reader assay), noncompartmental analysis
Type: in vivo, human
From the text: Phase 1 is a single-Principal Investigator, non-randomized, open-label, single-arm, cross-sectional study to evaluate the safety, PK profile, and imaging feasibility of Compound 1 in patients with solid cancers who require surgical excision. The main purpose of this study was to investigate the safety, PK, and feasibility of Compound 1 as an intra-operative optical imaging agent to detect tumors and metastatic lymph nodes in solid cancers. The study was intended to investigate the optimal dose range of Compound 1 for an adequate TBR and CNR of fluorescence obtained intraoperatively at 24 (±8) hours post dosing and with ex vivo specimens using ICG compatible cameras and imaging devices.
Phase 1 enrolled 30 patients with solid cancers (HNSCC, breast cancer, esophageal cancer, or colorectal cancer) who have a biopsy-confirmed diagnosis of respective tumor types and are scheduled to undergo surgical resection of the tumor. The study design included a standard 3+3 design for the dose-escalation portion (Phase 1a; N=18 maximum) followed by a dose-expansion portion (Phase 1b; N=15). All patients received a single I.V. dose of Compound 1, followed by routine surgery approximately 24 hours after infusion of Compound 1.
Phase 1a was a dose-finding study performed in 5 cohorts of 3 patients each. The dose levels evaluated were […], and 1.2 mg/kg, in this sequence. Inter-cohort dose escalation took place after the last patient in the previous cohort completed the Day 10 safety assessment. Safety, PK, and imaging feasibility were evaluated in both the Phase 1a and 1b portions of the study. Patient safety is assessed during the study and for up to 10 days post-dose.
Study design: Single Compound 1 IV dose was administered as a 1-5 minute IV infusion to patients in five cohorts (0.1, 0.3, 0.5, 0.8, and 1.2 mg/kg) with three patients per cohort in Phase 1a and 15 patients at a dose of 1.2 mg/kg in Phase 1b. Patient demographic information including tumor types is presented in Table 4 and 5 for Phase 1a and Table 5 for Phase 1b. Intertek Pharmaceutical Services (San Diego, Calif.) determined Compound 1 plasma concentrations using a validated direct fluorescence reader assay. Pacific BioDevelopment (Davis, Calif.) performed the PK analysis.
Sample collection: Blood samples were collected prior to infusion and at 10 minutes and 0.5, 1, 3, 8, 24, 48, 72, and 240 hours after infusion.
Analysis: Plasma concentration versus time profiles were generated for each patient. Pharmacokinetic parameters were estimated using Phoenix WinNonlin (version 8.0). According to SOP, concentrations reported as BQL were set to 0 except for the 0.5 h sample for subject #ON1102, which was set to LLOQ/2 ([…] value used in parameter calculations) and the 24 and 48 h samples.
If the coefficient of determination for the terminal slope estimation was less than 0.8, T1/2 was not reported (NR). AUC extrapolated to infinity is not reported for any data set because in all cases the % extrapolated AUC was greater than 20% and thus the AUCinf estimate would not be reliable. The concentration at 10 minutes, the first time point measured (C10m), was also reported for each patient.
The area under the plasma concentration versus time curves from dosing to the last time point with a measurable concentration (AUClast) was estimated by the linear trapezoid method. The last three or more time points were used to estimate the elimination rate constant (λz) which was used to estimate the terminal-phase half-life (T1/2) and AUC from zero to infinity (AUCINF) from the following equations: […]

[1] = 1.2 mg/kg, HNSCC, individual subjects
[2] = Phase 1a, 0.3 mg/kg single IV, individual subject
[3] = Phase 1a, 0.3 mg/kg single IV, mean
[4] = Phase 1a, 0.3 mg/kg single IV, median
[5] = Phase 1a, 0.5 mg/kg single IV, individual subject

Substance: PEO90-140-b-P(DBA60-150-r-ICG0-3-r-AMA0-3) [Compound 1]
- Cmax (1.2 mg/kg, HNSCC, Mean, N 7): 33600 ng/mL
- Tmax (1.2 mg/kg, HNSCC, Mean, N 7): 1.14 h
- T1/2 (1.2 mg/kg, HNSCC, Median, N 5): 42.6 h
- AUC0-24 hr (1.2 mg/kg, HNSCC, Median, N 7): 565 µg·h/mL
- AUCall (1.2 mg/kg, HNSCC, Median, N 7): 1160 µg·h/mL
- AUClast (1.2 mg/kg, HNSCC, Median, N 7): 970 µg·h/mL
- C10 m (1.2 mg/kg, HNSCC, Median, N 7): 30.3 µg/mL
- Cmax (1.2 mg/kg, HNSCC, Median, N 7): 32400 ng/mL
- Tmax (1.2 mg/kg, HNSCC, Median, N 7): 0.500 h
- AUC0-24 hr [1]: 348 µg·h/mL and 563 µg·h/mL and 565 µg·h/mL and 520 µg·h/mL and 625 µg·h/mL and 730 µg·h/mL and 740 µg·h/mL
- AUCall [1]: 348 µg·h/mL and 1160 µg·h/mL and 1100 µg·h/mL and 747 µg·h/mL and 2690 µg·h/mL and 2550 µg·h/mL and 2740 µg·h/mL
- AUClast [1]: 184 µg·h/mL and 970 µg·h/mL and 957 µg·h/mL and 520 µg·h/mL and 1430 µg·h/mL and 1480 µg·h/mL and 1580 µg·h/mL
- C10 m [1]: 28.0 µg/mL and 34.1 µg/mL and 28.5 µg/mL and 27.5 µg/mL and 30.3 µg/mL and 47.6 µg/mL and 31.3 µg/mL
- Cmax [1]: 28000 ng/mL and 34100 ng/mL and 29900 ng/mL and 29200 ng/mL and 32400 ng/mL and 47600 ng/mL and 34300 ng/mL
- T1/2 [1]: 32.5 h and 46.5 h and 42.6 h and 38.4 h and 46.8 h
- Tmax [1]: 0.170 h and 1.00 h and 0.500 h and 3.00 h
- AUC0-24h in relation to dose (Phase 1a and 1b, up to 1.2 mg/kg): appears to be dose proportional
- Exposure in relation to dose (Phase 1a and Phase 1b combined): dose proportional
- Measurability in subject plasma samples (Phase 1a, 0.1 mg/kg): not measurable
- C10 m (Phase 1a, 0.1 mg/kg single IV, individual subject): 0.00 µg/mL
- C10 m (Phase 1a, 0.1 mg/kg single IV, mean): 0.00 µg/mL
- C10 m (Phase 1a, 0.1 mg/kg single IV, median): 0.00 µg/mL
- Plasma Conc (Phase 1a, 0.100 mg/kg, 0.170 hr, individual subject): BQL (BQL (<10 μg/mL), set = 0 for PK analysis)
- Plasma Conc (Phase 1a, 0.100 mg/kg, 0.170 hr, mean): 0.00 µg/mL
- Plasma Conc (Phase 1a, 0.100 mg/kg, 0.500 hr, individual subject): BQL (BQL (<10 μg/mL), set = 0 for PK analysis)
- Plasma Conc (Phase 1a, 0.100 mg/kg, 0.500 hr, mean): 0.00 µg/mL
- Plasma Conc (Phase 1a, 0.100 mg/kg, 1.00 hr, individual subject): BQL (BQL (<10 μg/mL), set = 0 for PK analysis)
- Plasma Conc (Phase 1a, 0.100 mg/kg, 1.00 hr, mean): 0.00 µg/mL
- Plasma Conc (Phase 1a, 0.100 mg/kg, 3.00 hr, individual subject): BQL (BQL (<10 μg/mL), set = 0 for PK analysis)
- Plasma Conc (Phase 1a, 0.100 mg/kg, 3.00 hr, mean): 0.00 µg/mL
- Plasma Conc (Phase 1a, 0.100 mg/kg, 8.00 hr, individual subject): BQL (BQL (<10 μg/mL), set = 0 for PK analysis)
- Plasma Conc (Phase 1a, 0.100 mg/kg, 8.00 hr, mean): 0.00 µg/mL
- Plasma Conc (Phase 1a, 0.100 mg/kg, 24.0 hr, individual subject): BQL (BQL (<10 μg/mL), set = 0 for PK analysis)
- Plasma Conc (Phase 1a, 0.100 mg/kg, 24.0 hr, mean): 0.00 µg/mL
- Plasma Conc (Phase 1a, 0.100 mg/kg, 48.0 hr, individual subject): BQL (BQL (<10 μg/mL), set = 0 for PK analysis)
- Plasma Conc (Phase 1a, 0.100 mg/kg, 48.0 hr, mean): 0.00 µg/mL
- Plasma Conc (Phase 1a, 0.100 mg/kg, 72.0 hr, individual subject): BQL (BQL (<10 μg/mL), set = 0 for PK analysis)
- Plasma Conc (Phase 1a, 0.100 mg/kg, 72.0 hr, mean): 0.00 µg/mL
- Plasma Conc (Phase 1a, 0.100 mg/kg, 240 hr, individual subject): BQL (BQL (<10 μg/mL), set = 0 for PK analysis)
- Plasma Conc (Phase 1a, 0.100 mg/kg, 240 hr, mean): 0.00 µg/mL
- Mean AUC0-24h (Phase 1a, 0.3 mg/kg): 197 µg·h/mL
- Mean C10 (Phase 1a, 0.3 mg/kg): 12 µg/mL
- AUC0-24 hr [2]: 292 µg·h/mL and 4.68 µg·h/mL and 296 µg·h/mL
- AUCall [2]: 437 hr*μg/mL and 4.68 hr*μg/mL and 2040^1 hr*μg/mL
- AUClast [2]: 292 µg·h/mL and 3.43 µg·h/mL and 902 µg·h/mL
- C10 m [2]: 10.7 µg/mL and 10.4 µg/mL and 14.8 µg/mL
- Cmax [2]: 12500 ng/mL and 10400 ng/mL and 16500 ng/mL
- Tmax [2]: 8.00 h and 0.170 h and 3.00 h
- AUC0-24 hr [3]: 197 µg·h/mL
- AUCall [3]: 826 µg·h/mL
- AUClast [3]: 399 µg·h/mL
- C10 m [3]: 12.0 µg/mL
- Cmax [3]: 13100 ng/mL
- Tmax [3]: 3.72 h
- AUC0-24 hr [4]: 292 µg·h/mL
- AUCall [4]: 437 µg·h/mL
- AUClast [4]: 292 µg·h/mL
- C10 m [4]: 10.7 µg/mL
- Cmax [4]: 12500 ng/mL
- Tmax [4]: 3.00 h
- Plasma Conc (Phase 1a, 0.300 mg/kg, 0.170 hr, individual subject): 10.7 µg/mL and 10.4 µg/mL and 14.8 µg/mL
- Plasma Conc (Phase 1a, 0.300 mg/kg, 0.170 hr, mean): 12.0 µg/mL
- Plasma Conc (Phase 1a, 0.300 mg/kg, 0.500 hr, individual subject): 5.00^b μg/mL and 15.1 μg/mL
- Plasma Conc (Phase 1a, 0.300 mg/kg, 0.500 hr, mean): 10.1 µg/mL
- Plasma Conc (Phase 1a, 0.300 mg/kg, 1.00 hr, individual subject): 11.4 μg/mL and BQL (BQL (<10 μg/mL), set = 0 for PK analysis) and 12.9 μg/mL
- Plasma Conc (Phase 1a, 0.300 mg/kg, 1.00 hr, mean): 8.10 µg/mL
- Plasma Conc (Phase 1a, 0.300 mg/kg, 3.00 hr, individual subject): 12.0 μg/mL and BQL (BQL (<10 μg/mL), set = 0 for PK analysis) and 16.5 μg/mL
- Plasma Conc (Phase 1a, 0.300 mg/kg, 3.00 hr, mean): 9.50 µg/mL
- Plasma Conc (Phase 1a, 0.300 mg/kg, 8.00 hr, individual subject): 12.5 μg/mL and BQL (BQL (<10 μg/mL), set = 0 for PK analysis) and 11.2 μg/mL
- Plasma Conc (Phase 1a, 0.300 mg/kg, 8.00 hr, mean): 7.90 µg/mL
- Plasma Conc (Phase 1a, 0.300 mg/kg, 24.0 hr, individual subject): 12.1 μg/mL and BQL (BQL (<10 μg/mL), set = 0 for PK analysis) (2×)
- Plasma Conc (Phase 1a, 0.300 mg/kg, 24.0 hr, mean): 6.05 µg/mL
- Plasma Conc (Phase 1a, 0.300 mg/kg, 48.0 hr, individual subject): BQL (BQL (<10 μg/mL), set = 0 for PK analysis)
- Plasma Conc (Phase 1a, 0.300 mg/kg, 48.0 hr, mean): 0.00 µg/mL
- Plasma Conc (Phase 1a, 0.300 mg/kg, 72.0 hr, individual subject): BQL (BQL (<10 μg/mL), set = 0 for PK analysis) (2×) and 13.5 μg/mL
- Plasma Conc (Phase 1a, 0.300 mg/kg, 72.0 hr, mean): 4.50 µg/mL
- Plasma Conc (Phase 1a, 0.300 mg/kg, 240 hr, individual subject): BQL (BQL (<10 μg/mL), set = 0 for PK analysis)
- Plasma Conc (Phase 1a, 0.300 mg/kg, 240 hr, mean): 0.00 µg/mL
- Mean AUC0-24h (Phase 1a, 0.5 mg/kg): 289 µg·h/mL
- Mean C10 (Phase 1a, 0.5 mg/kg): 17.3 µg/mL
- AUC0-24 hr [5]: 314 µg·h/mL and 340 µg·h/mL and 213 µg·h/mL
- AUCall [5]: 314 µg·h/mL and 1980 µg·h/mL and 213 µg·h/mL
- AUClast [5]: 160 µg·h/mL and 969 µg·h/mL and 101 µg·h/mL
- C10 m [5]: 22.0 µg/mL and 16.2 µg/mL and 13.6 µg/mL

Source: patent US20230025280A1, “PH RESPONSIVE COMPOSITIONS, FORMULATIONS, AND METHODS OF IMAGING A TUMOR” (ONCONANO MEDICINE, INC, priority 2019, published 2023)
